Laboratory results published in patent US20220267415A1 (University of Texas, published 2022).
Where “and” joins values, the source holds several entries; their conditions need not be identical. Identical values can stand only once. Like-named read-outs stand apart in the source and are kept apart here.

Assays:
[1] = target: T1, recombinant SARS-CoV-2 Receptor Binding Domain (RBD) with a his tag (ATUM, Cat. 65639.1.a) (SARS-CoV-2, UniProt P0DTC2 319-541); assay: ELISA on coated RBD-his
Source text: Plates were then washed 5 times with 0.05% PBS-Tween and blocked with 2% BSA-PBS. […] Luminescent data were collected on an EnVision plate reader (Perkin-Elmer) and analyzed with GraphPad Prism using a 4-parameter logistic model.

[2] = target: T2, SARS-CoV-2 spike protein, wild type, on live virus (SARS-CoV-2-mNG / USA-WA1/2020) (SARS-CoV-2, UniProt P0DTC2 13-1273); assay: cell-based or functional assay
[3] = target: T2, SARS-CoV-2 spike protein, wild type, on …; assay: cell-based or functional assay; remark: listed apart in the source
[4] = target: T2, SARS-CoV-2 spike protein, wild type, on …; assay: cell-based or functional assay; remark: listed apart in the source
[5] = target: T2, SARS-CoV-2 spike protein, wild type, on …; assay: cell-based or functional assay; remark: listed apart in the source
[6] = target: T2, SARS-CoV-2 spike protein, wild type, on …; assay: cell-based or functional assay; remark: listed apart in the source
[7] = target: T2, SARS-CoV-2 spike protein, wild type, on …; assay: cell-based or functional assay; remark: listed apart in the source
[8] = target: T1, recombinant SARS-CoV-2 Receptor Binding …

B1: anti-SARS-CoV2-26 IgA1 (antibody)
VH: not shown
VL: QSALTQPPSASGTPGQRVTISCSGSSSNIGSNSVNWYQQVPGTAPKLLIYANDHRPSGVPDRFSGSKSGTSASLAISGLQSEDEADYYCAAWDNSLKGVVFGGGTKVTVL
chain: not shown
- EC50 [1]: 1.8 nM

B2: anti-SARS-CoV2-26 IgA2m2 (antibody)
VH: not shown
VL: QSALTQPPSASGTPGQRVTISCSGSSSNIGSNSVNWYQQVPGTAPKLLIYANDHRPSGVPDRFSGSKSGTSASLAISGLQSEDEADYYCAAWDNSLKGVVFGGGTKVTVL
chain: not shown
- EC50 [1]: 38 nM

B3: anti-SARS-CoV2-06 IgM (lambda-VL-kappa-CL hybrid light chain) (antibody)
VH: QVELQESGPGLVKPSGTLSLTCAVSGGSISSNNWWTWVRQPPGKGLEWIGEIHHSGGTNYNPSLKSRVTMSVDKSKNQFSLNLYSVTAADTAVYYCTRDRAGGTYSGFDFWGQGTLVTVSS
VL: QAVVTQPASVSGSPGQSITISCTGTSSDVGGYNYVSWYQQHPGKAPKLMIYDVSNRPSGVSNRFSGSKSGNTASLTISGLQAEDEADYYCSSYTSSSTVVFGGGTKVTVL
chain: not shown
- EC50 (neutralization of live SARS-CoV-2-mNG) [2]: 0.06 µg/ml and 0.067 nM
- Fold change of neutralization EC50 in nM (IgM-06 against IgG-06) [2]: 14.9 fold
- Fold change of neutralization EC50 in µg/ml (IgM-06 against IgG-06) [2]: 2.5 fold
- Neutralization EC50 [3]: 0.059 mg/L

B4: anti-SARS-CoV2-06 IgG (lambda-VL-kappa-CL hybrid light chain) (antibody, V domains shown)
VH: QVELQESGPGLVKPSGTLSLTCAVSGGSISSNNWWTWVRQPPGKGLEWIGEIHHSGGTNYNPSLKSRVTMSVDKSKNQFSLNLYSVTAADTAVYYCTRDRAGGTYSGFDFWGQGTLVTVSS
VL: QAVVTQPASVSGSPGQSITISCTGTSSDVGGYNYVSWYQQHPGKAPKLMIYDVSNRPSGVSNRFSGSKSGNTASLTISGLQAEDEADYYCSSYTSSSTVVFGGGTKVTVL
- EC50 (neutralization of live SARS-CoV-2-mNG) [2]: 0.15 µg/ml and 1 nM
- Neutralization EC50 [3]: 0.22 mg/L

B5: anti-SARS-CoV2-14 IgM (full lambda light chain) (antibody)
heavy: EVQLQQSGPGLVKPSQTLSLTCAISGDSVSSNSAAWNWIRQSPSRGLEWLGRTYYRSKWYNDYAVSVKSRITINPDTSKNQFSLQLNSVTPEDTAVYYCAREEQQLVHDYYYYGMDVWGQGTMVTVSSGSASAPTLFPLVSCENSPSDTSSVAVGCLAQDFLPDSITFSWKYKNNSDISSTRGFPSVLRGGKYAATSQVLLPSKDVMQGTDEHVVCKVQHPNGNKEKNVPLPVIAELPPKVSVFVPPRDGFFGNPRKSKLICQATGFSPRQIQVSWLREGKQVGSGVTTDQVQAEAKESGPTTYKVTSTLTIKESDWLSQSMFTCRVDHRGLTFQQNASSMCVPDQDTAIRVFAIPPSFASIFLTKSTKLTCLVTDLTTYDSVTISWTRQNGEAVKTHTNISESHPNATFSAVGEASICEDDWNSGERFTCTVTHTDLPSPLKQTISRPKGVALHRPDVYLLPPAREQLNLRESATITCLVTGFSPADVFVQWMQRGQPLSPEKYVTSAPMPEPQAPGRYFAHSILTVSEEEWNTGETYTCVVAHEALPNRVTERTVDKSTGKPTLYNVSLVMSDTAGTCY
light: QAVVTQPASVSGSPGQSITISCTGTSSDIGAYNYISWYQQHPGKAPKLIIYEVSNRPSGISYRFSGSKSGNTASLTISGLQAEDEANYYCSSYAGSISFGGGTKVTVLGQPKAAPSVTLFPPSSEELQANKATLVCLISDFYPGAVTVAWKADSSPVKAGVETTTPSKQSNNKYAASSYLSLTPEQWKSHRSYSCQVTHEGSTVEKTVAPTECS
chain: not shown
- Fold-Increase in potency of IgM over IgG [4]: 46 fold
- Neutralization EC50 (PRNT) [4]: 0.011 mg/L
- Fold-Increase in potency of IgM over IgG [5]: 61 fold
- Neutralization EC50 (PRNT) [5]: 0.0052 mg/L
- Neutralization EC50 [6]: 0.0046 mg/L

B6: anti-SARS-CoV2-14 IgG (lambda-VL-kappa-CL hybrid light chain) (antibody, V domains shown)
VH: EVQLQQSGPGLVKPSQTLSLTCAISGDSVSSNSAAWNWIRQSPSRGLEWLGRTYYRSKWYNDYAVSVKSRITINPDTSKNQFSLQLNSVTPEDTAVYYCAREEQQLVHDYYYYGMDVWGQGTMVTVSS
VL: QAVVTQPASVSGSPGQSITISCTGTSSDIGAYNYISWYQQHPGKAPKLIIYEVSNRPSGISYRFSGSKSGNTASLTISGLQAEDEANYYCSSYAGSISFGGGTKVTVL
- EC50 (neutralization of live SARS-CoV-2-mNG) [7]: 2.6 nM and 0.39 µg/ml
- Neutralization EC50 [3]: 0.39 mg/L

B7: anti-SARS-CoV2-14 IgA2m2 (antibody)
VH: EVQLQQSGPGLVKPSQTLSLTCAISGDSVSSNSAAWNWIRQSPSRGLEWLGRTYYRSKWYNDYAVSVKSRITINPDTSKNQFSLQLNSVTPEDTAVYYCAREEQQLVHDYYYYGMDVWGQGTMVTVSS
VL: QAVVTQPASVSGSPGQSITISCTGTSSDIGAYNYISWYQQHPGKAPKLIIYEVSNRPSGISYRFSGSKSGNTASLTISGLQAEDEANYYCSSYAGSISFGGGTKVTVL
chain: not shown
- EC50 [1]: 14 nM

B8: anti-SARS-CoV2-14 IgA1 (antibody)
VH: EVQLQQSGPGLVKPSQTLSLTCAISGDSVSSNSAAWNWIRQSPSRGLEWLGRTYYRSKWYNDYAVSVKSRITINPDTSKNQFSLQLNSVTPEDTAVYYCAREEQQLVHDYYYYGMDVWGQGTMVTVSS
VL: QAVVTQPASVSGSPGQSITISCTGTSSDIGAYNYISWYQQHPGKAPKLIIYEVSNRPSGISYRFSGSKSGNTASLTISGLQAEDEANYYCSSYAGSISFGGGTKVTVL
chain: not shown
- EC50 [1]: 1.9 nM

B9: anti-SARS-CoV2-14 IgG (full lambda light chain) (antibody, V domains shown)
VH: EVQLQQSGPGLVKPSQTLSLTCAISGDSVSSNSAAWNWIRQSPSRGLEWLGRTYYRSKWYNDYAVSVKSRITINPDTSKNQFSLQLNSVTPEDTAVYYCAREEQQLVHDYYYYGMDVWGQGTMVTVSS
VL: QAVVTQPASVSGSPGQSITISCTGTSSDIGAYNYISWYQQHPGKAPKLIIYEVSNRPSGISYRFSGSKSGNTASLTISGLQAEDEANYYCSSYAGSISFGGGTKVTVL
- Neutralization EC50 (PRNT) [4]: 0.51 mg/L
- Neutralization EC50 (PRNT) [5]: 0.32 mg/L
- Neutralization EC50 [6]: 0.6 mg/L

B10: anti-SARS-CoV2-16 IgM (antibody)
VH: QVQLHQWGAGLLKPSETLSRTCAVYGGSFSGYYWTWIRQAPGKGLEWIGEINHGGSTRYNPSLESRVSISVDTSKKQFSLELRSVTAADTAIYYCARGYDTNWYGDGYNWFDPWDRGTLVTVSS
VL: QAVVTQPPSVSGTPGQRVTISCSGSSSSIGSNTVHWYQHLPGTAPKLLMYNNNERPSGVPARFSGSKSGTSASLVITGLQADDEAEYYCQSYDTGLSGHVFGSGTELTVL
chain: not shown
- EC50 (read off the curve) [8]: ~0.3 nM
- EC50 [1]: 0.3 nM

B11: anti-SARS-CoV2-09 IgA1 (antibody)
VH: QVQLHQWGAGLLKPSETLSRTCAVYGGSFSGYYWTWIRQAPGKGLEWIGEINHGGSTRYNPSLESRVSISVDTSKKQFSLELRSVTAADTAIYYCARGYDTNWYGDGYNWFDPWDRGTLVTVSS
VL: QSALTQDPSVSVALGQTVRITCQGDSLRGSFASWYRQKPGQAPVLVIFGINNRPSGVPDRFSGSSSGNTASLTITGAQAEDEADYYCNSRESNSNRILFGGGTKVTVL
chain: not shown
- EC50 [1]: 1 nM

B12: anti-SARS-CoV2-16 IgA1 (antibody)
VH: QVQLHQWGAGLLKPSETLSRTCAVYGGSFSGYYWTWIRQAPGKGLEWIGEINHGGSTRYNPSLESRVSISVDTSKKQFSLELRSVTAADTAIYYCARGYDTNWYGDGYNWFDPWDRGTLVTVSS
VL: QAVVTQPPSVSGTPGQRVTISCSGSSSSIGSNTVHWYQHLPGTAPKLLMYNNNERPSGVPARFSGSKSGTSASLVITGLQADDEAEYYCQSYDTGLSGHVFGSGTELTVL
chain: not shown
- EC50 (read off the curve) [8]: ~0.5 nM
- EC50 [1]: 0.6 nM

B13: anti-SARS-CoV2-09 IgA2m2 (antibody)
VH: QVQLHQWGAGLLKPSETLSRTCAVYGGSFSGYYWTWIRQAPGKGLEWIGEINHGGSTRYNPSLESRVSISVDTSKKQFSLELRSVTAADTAIYYCARGYDTNWYGDGYNWFDPWDRGTLVTVSS
VL: QSALTQDPSVSVALGQTVRITCQGDSLRGSFASWYRQKPGQAPVLVIFGINNRPSGVPDRFSGSSSGNTASLTITGAQAEDEADYYCNSRESNSNRILFGGGTKVTVL
chain: not shown
- EC50 [1]: 1.4 nM

B14: anti-SARS-CoV2-16 IgA2m2 (antibody)
VH: QVQLHQWGAGLLKPSETLSRTCAVYGGSFSGYYWTWIRQAPGKGLEWIGEINHGGSTRYNPSLESRVSISVDTSKKQFSLELRSVTAADTAIYYCARGYDTNWYGDGYNWFDPWDRGTLVTVSS
VL: QAVVTQPPSVSGTPGQRVTISCSGSSSSIGSNTVHWYQHLPGTAPKLLMYNNNERPSGVPARFSGSKSGTSASLVITGLQADDEAEYYCQSYDTGLSGHVFGSGTELTVL
chain: not shown
- EC50 (read off the curve) [8]: ~0.6 nM
- EC50 [1]: 0.6 nM
